Reference: publication PMC6414729

Legend:
[1] = substrate: CB-PB phycobilisome (truncated phycobilisome of the CB mutant of Synechocystis PCC 6803) (Synechocystis PCC 6803) (UniProt Q01951); test: bulk fluorescence quenching (emission spectrum and lifetime decay); OCP:CB-PB 40:1 in 0.8 M phosphate buffer, illuminated with white light 10 min at 23 °C; bulk sample ~25 nM
[2] = compound: CB-PB phycobilisome (truncated phycobilisome of the CB mutant of Synechocystis PCC 6803) (Synechocystis PCC 6803) (UniProt Q01951); test: ABEL trap single-molecule fluorescence spectroscopy; pre-activated and pre-bound OCP + CB-PB (40:1) diluted to ~10 pM in 0.8 M phosphate buffer pH 7.5 with 1 M sucrose; single complexes in free solution; followed up to 5 h after dilution
[3] = substrate: CB-PB phycobilisome (truncated phycobilisome of the CB mutant of Synechocystis PCC 6803) (Synechocystis PCC 6803) (UniProt Q01951)
[4] = substrate: CB-PB phycobilisome (truncated phycobilisome of the CB mutant of Synechocystis PCC 6803) (Synechocystis PCC 6803) (UniProt Q01951); remark: listed apart in the source

B1: Orange Carotenoid Protein, photoactivated red form (OCP^R) (natural protein)
chain: MPFTIDSARGIFPNTLAADVVPATIARFSQLNAEDQLALIWFAYLEMGKTLTIAAPGAASMQLAENALKEIQAMGPLQQTQAMCDLANRADTPLCRTYASWSPNIKLGFWYRLGELMEQGFVAPIPAGYQLSANANAVLATIQGLESGQQITVLRNAVVDMGFTAGKDGKRIAEPVVPPQDTASRTKVSIEGVTNATVLNYMDNLNANDFDTLIELFTSDGALQPPFQRPIVGKENVLRFFREECQNLKLIPERGVTEPAEDGFTQIKVTGKVQTPWFGGNVGMNIAWRFLLNPEGKIFFVAIDLLASPKELLNFA
percent of complexes quenched [1]: > 95%
stoichiometry N [2]: 2
brightness of quenched state Q1 relative to unquenched CB-PB [3]: 11%
brightness of quenched state Q2 relative to unquenched CB-PB [3]: 6%
bulk fluorescence emission of fully quenched OCP + CB-PB (40:1) relative to unquenched CB-PB [4]: 9%
bulk fluorescence lifetime, shorter component of the quenched OCP + CB-PB complex (unquenched 1.6 ns) [4]: 0.1 ns
